In article PMC3164656, “Burkholderia cenocepacia BC2L-C Is a Super Lectin with Dual Specificity and Proinflammatory Activity” (PLoS Pathogens, 2011):

How the values were obtained:
B. cenocepacia K56-2 = experiment: Mannose-dependent lectin extraction from bacterial surface (Western blot); set-up: species or system Burkholderia cenocepacia; details: 50 mM D-mannose, 5 min, FLAG-tagged lectins
Protocol: Culture supernatant proteins were precipitated with trichloroacetic acid as described previously The protein concentration was determined by Bradford assay (Bio-Rad) and 4 µg of protein were loaded on a 18% SDS-PAGE gel. After electrophoresis, gels were transferred to nitrocellulose membranes for immunoblot analysis. The membranes were incubated with the 4RA2 monoclonal antibody (Neoclone) cross-reacting with the B. cenocepacia RNA polymerase subunit alpha (cytosolic protein, cell lysis control) and the FLAG M2 monoclonal antibody (Sigma). The Alexa Fluor 680 goat anti-mouse IgG (Molecular Probes) was used as a secondary antibody. Detection was performed using the Odyssey Infrared Imager (LI-COR Biosciences).
Overnight cultures were diluted to an OD600 nm of 0.03 in 50 mL LB and grown at 37°C for 8 h. Cells were then centrifuged at 5000 g for 10 min. The pellet was washed twice with 25 mL of phosphate buffered saline (PBS) and finally resuspended in 1.5 mL PBS. Five hundred µL aliquots were placed into two eppendorf tubes to which 500 µL of PBS or 500 µL of 100 mM D-mannose made in PBS (50 mM final concentration) was added. Samples were gently mixed by inversion and incubated for 5 min at room temperature. Samples were centrifuged at 6000 g for 5 min, supernatants were collected (800 µL) and filter-sterilized using […] filters. […]

BC2L-C-nt = test system: BC2L-C-nt; set-up: method as in PMID 20152153; details: cited from earlier work
[1] = biological target: BC2L-C, soluble lectin from Burkholderia cenocepacia (whole protein) (Burkholderia cenocepacia) (UniProt B4EH87); experiment: SEC-MALS; Superdex 200, 20 mM Tris, 250 mM NaCl, 1 mM CaCl2, pH 7.5; loaded at 4.2 mg/mL BC2L-C, 7.5 mg/mL BC2L-C-nt, 10.7 mg/mL BC2L-C-ct; MALLS with refractometry
[2] = biological target: BC2L-C-ct, C-terminal domain of BC2L-C (Burkholderia cenocepacia); experiment: as above
[3] = biological target: BC2L-C-nt, N-terminal TNF-α-like domain of BC2L-C (Burkholderia cenocepacia); experiment: as above
BEAS-2B cells = experiment: IL-8 production by respiratory epithelial cells (ELISA); assay type: cell-based, human; details: 0.3 µM, 15 h, ELISA of supernatants
Protocol: BC2L-C and its separate domains were used for the stimulation of the human bronchial cell line BEAS-2B obtained from the American Type Cell Collection (Manassas, VA). Cells were maintained in serial passage in F-12K culture medium supplemented with 10% FCS, 1% penicillin and streptomycin, 1% glutamine and 10 mM HEPES in 75 cm2 culture flasks and seeded at 5×10^4 on 24-well plates 3 days before stimulation. In all experiments, BEAS-2B cells were stimulated during 15 hours with the different agonists in a 300 µL medium. IL-8 concentrations in cell culture supernatants were determined using a Duo-Set ELISA kit. Duo-Set ELISA kit and the recombinant human TNF-α were obtained from R&D Systems (Minneapolis, MN).

For `OC[C@H]1OC(O)[C@@H](O)[C@@H](O)[C@@H]1O` (stereo partly drawn) [D-Man, D-mannose], the “release of surface-bound lectins into supernatant” value (B. cenocepacia K56-2) was “BC2L-B and -C lectins are released into the supernatant”.

For `C[C@H](O)[C@@H](O)[C@@H](O)[C@H](O)C=O` [fucose], the “binding of isolated BC2L-C-nt domain” value (BC2L-C-nt) is given as “binds strongly to fucose”.

Molecule “BC2L-C, soluble lectin from Burkholderia cenocepacia (whole protein) (from UniProt B4EH87 1-129) (natural protein)” has a stoichiometry N [1] of 6.

Molecule “BC2L-C-ct, C-terminal domain of BC2L-C (domain or fragment)” has a stoichiometry N [2] of 2.

“BC2L-C-nt, N-terminal TNF-α-like domain of BC2L-C (domain or fragment)” gave a stoichiometry N [3] of 3.

B1: BC2L-C: soluble hexameric lectin from Burkholderia cenocepacia with fucose- and mannose/heptose-binding domains, recombinant (protein)
chain: MADSQTSSNRAGEFSIPPNTDFRAIFFANAAEQQHIKLFIGDSQEPAAYHKLTTRDGPREATLNSGNGKIRFEVSVNGKPSATDARLAPINGKKSDGSPFTVNFGIVVSEDGHDSDYNDGIVVLQWPIG
With B1 the IL-8 production (BEAS-2B cells) was “markedly increase in IL-8 production”.
